Source: publication PMC3087862 (Nature structural & molecular biology, 2011)

Target: the molecule itself
Assay: SEC

B1: human Hsp90α two-domain construct MC (293-732) (domain or fragment)
chain: not shown
stoichiometry N: 2

B2: human Hsp90α full-length protein without part of the N-M linker (Hsp90Δ; 1-732, 241-268 deleted) (natural protein)
chain: not shown
stoichiometry N: 2
